We go through one molecule from patent US20240209089A1 (SUZHOU SMARTNUCLIDE BIOPHARMACEUTICAL, published 2024).

In test [1] the target is T1, human CD8α full-length protein (human, UniProt P01732 22-235).
T1 construct: whole, on cells; The same entry is used for MC38-CD8α transfectants and for human CD8+ T cells from peripheral blood; the assay field says which cells; also called cell surface CD8α; MC38-CD8α cells
The test is described as follows: flow cytometry on MC38-CD8α cells, secondary antibody-PE. How it is done: Mouse colon cancer MC38 cell lines stable transfected with human CD8α full-length protein gene were constructed to obtain MC38 cells (MC38-CD8α cells) stably expressing human CD8α proteins on the cell membrane. Prior to use, the cells were cultured to >90% convergence. The anti-CD8α single domain antibody was used to perform flow cytometry on these cells for quantitative analysis of indirect immunofluorescence staining so as to determine the quantity of receptors on surface of each cell.
The cells were collected and suspended to a concentration of 2.5×10⁶ cells/mL. 200 μL of cell aliquot samples were mixed with 20 μL of primary antibody, and the obtained mixture was incubated for 30 min on ice. The cells were centrifuged, washed and re-suspended, then 5 μL of secondary antibody-PE conjugate was added, and then the above mixture was incubated for 30 minutes on ice. The cells were washed twice, re-suspended and underwent flow cytometry on BD FACSCelesta™. For each tube, at least 5×10⁴ events were collected. All the analyses were single colors, and PE was detected in […].

The target in test [2] is T2, CD8α-Fc fusion protein (human).
T2 construct: also called CD8 α-Fc protein; CD8α-Fc tag antigen
T2 sequence (chain, as listed by the source): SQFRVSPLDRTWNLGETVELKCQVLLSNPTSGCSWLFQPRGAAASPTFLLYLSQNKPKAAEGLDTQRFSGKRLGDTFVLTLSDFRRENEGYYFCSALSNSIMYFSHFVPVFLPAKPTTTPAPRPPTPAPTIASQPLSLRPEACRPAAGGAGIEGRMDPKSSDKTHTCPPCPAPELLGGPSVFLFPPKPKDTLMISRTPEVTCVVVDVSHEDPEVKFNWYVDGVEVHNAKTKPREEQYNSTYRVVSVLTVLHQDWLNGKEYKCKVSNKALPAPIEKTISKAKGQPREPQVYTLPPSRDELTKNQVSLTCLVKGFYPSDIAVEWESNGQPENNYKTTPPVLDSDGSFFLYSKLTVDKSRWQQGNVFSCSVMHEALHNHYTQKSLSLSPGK
The test is described as follows: ELISA on coated CD8α-Fc, relative to C2-cHis control. How it is done:
(§1) The CD8 α-Fc protein was transiently expressed by HEK293 and purified by protein A affinity chromatography. The plate was coated with the obtained CD8α-Fc protein in a concentration of 0.5 μg/well at 4° C. overnight, and then the gradient dilution series of the obtained anti-CD8α single domain antibody protein was added to react for 1 hour at room temperature. After washing, anti-his horseradish peroxidase labeled antibody was added to react for 1 hour at room temperature. After washing, a chromogenic solution was added, and an absorption value at 450 nm was read. The data processing and plotting analysis were performed by using software SotfMaxPro v5.4. […] Of the 10 selected antibodies (see Table 5 for details), the relative activities of different anti-CD8α single domain antibodies were compared by using C2-cHis as control, so as to reflect the affinity of the antibodies on CD8α. Of the 10 tested antibodies, C37, C42, C46, S5 and S36 have relatively high binding activity.

Another test has as its target T3, CD8α-cHis fusion protein (UniProt P01732 22-182).
T3 construct: not shown: C-terminal His tag
The test is described as follows: BLI (ForteBio Octet), biotinylated antibody on SA sensor, CD8α-chis 6.25-100 nM. The protocol:
The anti-CD8α single domain antibody-biontin was fixed on an SA biological sensor. Then, CD8α-chis with a concentration of 6.25-100 nM bound to a nano antibody and then dissociated. The binding dynamic variables of four antibodies C37, C42, C46 and S5 were evaluated and determined by using Octet Data Analysis version 9.0, including Kon, Koff and Kd.
A general note: Biolayer interferometry detects binding as a change in optical thickness at a sensor tip.

The target in test [3] is T1, human CD8α full-length protein. The test is described as follows: competition radioligand binding on MC38-CD8 cells, 2 h at 4 °C; unlabeled SNA006a varied against the tracer 125I-SNA006a. The protocol:
(§2) The 96-well cell suction filter plate was saturated with a binding buffer and dried in air before use.
(§3) After reaction for 2 hours at 4° C., the reaction solution in the suction filter plate was drained using auxiliary equipment of a vacuum pump and the suction filter plate, 200 μL of PBS buffer (0.01 M, pH=7.4) was added into each well and drained, and the cells were repeatedly washed for 6 times. After the filter membrane at the bottom of the suction filter plate was dried, the filter membrane at the bottom was collected, and a γ counter was used for measurement. Calculation and plotting were performed by using Prism 7.0 (GraphPad Software, Inc.), and the half inhibition concentration IC50 was calculated by nonlinear regression analysis. Four parallel samples were set at each experimental point, and the experiment was repeated twice. The result given in this experiment is an average value plus a standard deviation.

Test [4] shares this target. The test is described as follows: competition binding on MC38-CD8 cells, displacement of ^125I-SNA006a, 4 °C, 2 h. How it is done: as §2, §3
Test [5] has as its target T2, CD8α-Fc fusion protein. The test is described as follows: ELISA on coated CD8α-Fc, antibody after exchange into NaHCO3 buffer, relative to the uncoupled antibody as standard. The protocol: By using PD-10 column (GE), the buffer of the CD8α-cHis single domain antibody (including C37, C46 and S5) was changed to a NaHCO3 buffer solution with a certain pH, and p-SCN-Bn-NOTA (Macrocyclics, article No. B-605) was dissolved into DMSO with a concentration of 25 mg/mL, and the p-SCN-Bn-NOTA solution whose molar was twice that of lysine on the single domain antibody was added into the CD8α single domain antibody, the above materials reacted for a certain time period at room temperature, the conjugated product was purified by PD-10 column (GE) and concentrated by ultrafiltration.
The activity of the above CD8α-NOTA after labeling was determined by ELISA. The specific method is as follows: the CD8α-Fc fusion protein was placed in the coated plate in a concentration of 5 μg/well at 4° C. overnight. After blocking with 3% BSA at 37° C., samples subjected to gradient dilution (the uncoupled CD8α single domain antibody was a standard substance) were added to act for 1 hour at 37° C. Then, anti-his-HRP (purchased from Abcam Company) was added to react for 1 hour at room temperature. Then, a chromogenic solution was added, and the absorption value at 450 nm was read.
In general terms: In an ELISA, binding on a coated surface is turned into a signal by an enzyme label.

Test [6] has as its target T2, CD8α-Fc fusion protein. The test is described as follows: ELISA on coated CD8α-Fc, anti-his-HRP, four-parameter fit. The protocol:
as §1

T1 sequence (P01732 22-235): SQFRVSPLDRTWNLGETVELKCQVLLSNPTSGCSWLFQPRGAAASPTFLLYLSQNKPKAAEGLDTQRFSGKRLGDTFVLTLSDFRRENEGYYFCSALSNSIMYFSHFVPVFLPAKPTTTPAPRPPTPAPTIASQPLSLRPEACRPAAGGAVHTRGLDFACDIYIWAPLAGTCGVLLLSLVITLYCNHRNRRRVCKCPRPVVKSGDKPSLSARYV
T3 sequence (P01732 22-182): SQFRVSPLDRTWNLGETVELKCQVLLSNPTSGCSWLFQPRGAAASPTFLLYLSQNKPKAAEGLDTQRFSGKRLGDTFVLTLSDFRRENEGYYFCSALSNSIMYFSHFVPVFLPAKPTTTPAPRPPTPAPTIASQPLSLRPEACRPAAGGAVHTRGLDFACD

B1: C37-cHis antibody (VHH)
VHH: QLQLVESGGGLVQAGGSLRLSCAASGLTFEDYAIGWFRQAPGKEREGISCIRIYDGNTYSAESVKGRFTISSDNAKNQVYLQINTLKPEDTAVYYCAAGSYYSCSVYPDYDMDYWGKGTLVTVSS
notes: HEK293 construct; an E. coli preparation is also described; Biotinylated for the ForteBio assay; also called C37-his; SNA006a
What is called Kd is the equilibrium constant for the complex coming apart. In general, koff refers to a measure of how fast the partners let go of each other. By kon is commonly meant the rate constant with which the complex forms. A lower kon goes with slower complex formation. What is called IC50 is the concentration that gives 50% inhibition. Read a low IC50 as higher potency. Broadly, the EC50 is the concentration needed to bring the measured effect to its halfway point. Higher therefore signals a need for much substance. For B1, the “Positive rate (%)” value in test [1] stood at 99.8%. Also, the “Relative activity (%)” value with CD8α-Fc fusion protein [2] is 322%. Further, in the test with CD8α-cHis fusion protein, the dissociation constant Kd was determined as 0.644 nM, the koff was 0.000311 s⁻¹ and the kon stood at 483000 M⁻¹ s⁻¹. Besides, in test [3], the 50% inhibitory concentration (IC50) was found to be 3.02 nM and the “IC50 (read off the curve)” value was around 3 nM. This molecule gave an IC50 in test [4] of around 3 nM. In addition, the “Relative activity of CD8α-cHis-NaHCO3 (%)” value in the test with CD8α-Fc fusion protein [5] came out at 76%. The 50% effective concentration (EC50) with CD8α-Fc fusion protein [6] was 0.989 ng/mL.
